Results from the DeepSol protein solubility set.

assay: soluble on expression in E. coli; label from the status in PepcDB or PDB records

Sequence	soluble on expression in E. coli
MGSDKIHHHHHHMKIIHIVESSATGTLSMVCLIANRLAREGHDVHVIYSVRPDTPPALAAMFDTRVSLRHVQMKGAGLLRIAGRLRATLNEIGPDVVHLHSSFAGFLGRLSTLFALPKAAFFYSPHCISFMRRDISGVKRMAFIGLEWIACVRKCLYVACSESEGHAIRAWLRQPVVVVENAVSDTRSPQRSGDAERLADGPPCVVTVGGIRAQKNPELFARIAHGMRARGTRFVWIGDGDAAEKARLAEAGVEVTGWLPRDEVVRRLERADVYLSTSSWEGMPVSVIEAMLAGRPVIVSDCAGNVDVVRHLQTGLIYTTASDAIAWLERLAGDDALRRELARRASREARQRFGEERLFGELAPLYAASVAR	not soluble
MGSDKIHHHHHHMSKSVDETVFDFFELLLHEDDSAFSASPIKSQASATSAFDVSIKTEAQQLNDAILAEHERSKVDARASIVPEAQLARAKSIVTVSTKENAEPLVNKQALERLLAPVLKTQAPDIPKPTELNEQPLPLPKPVEAIAVTNVVKPADVESQQVEIISTAPETQVGFAPPSVTKDLQEVLDDEFQVLFFKVAGLTLAVPLVSLGGIVKVERINHIIGRPSWFLGVQTHREEQLNLVDTCAWVMPEKYTDKLAQSVNYQYLVLLEGSNWGLACESLLNAVKIHKSQVNWRSKAGKRPWLAGVVKEQMCGILHVQALVQMLDAGLGCQDSIG	not soluble
MSLAATGDAGWRIRLREAAVVAGPTVLLGEVADPVGEMPAAVWRDLAARPLWAAPADAGRPMIVNKVRLGEALRAALGATADSCLLPPSMALQRGGAVLREGDLRDIVVRTMTPQLASMGGEASFSDFRLPPFAFLEHPQQKVILEPLQPAPGRLSLRFAVLEMDGAVVRRFTGTAFLDVWLTVPCAAQPLNRGDRLEVEKVTWMRKNIAHLRAAPWDGRGGPWQLQRPVGAGQVVYQDDVAPNPAVTRGGIVTLVYESPALRLAVQGEALADGMPGETIQVRNLQSRKQVYATVRDGSTVVVREGHHHHHH	soluble
PQQRRDIRFVWSGDTVGQGFGINPDIGGMRIYEAMRLRLPDFFIHSGDTIYADGPVPAQITAEGGRIWRNITTEAKSKVAETLDEYRGNYRYNLMDENLRRFNAEVPQIWQWDDHEVTNNWSPSKQLDDRYKVKDIQLLSSRARQAYLEYAPLRLQEADKGGRIYRKIPYGPMLDVFVLDMRSYRDGNDANLADKPGPTTAFMGCEQLDWLKRELDASTAQWKVIAADMPIGLGVPDGEVSPGVPRWEAIANGNDGPALGRELEIAELLAYLRAQKVRDCVWLTADVHYCAAHHYQPDLAVFQDFDPFWEFVAGPLNASSFGPNVLDKTFGPELVFQKAPPAQNTSPFAGYQFFGEVNIDGQTGEMSVALRDLDGVSVFERKLQP	not soluble
MERSWGMGHFPHMQKKTLDAFVRGLQIVMEAEGIKMKPLSVAAGMGESGVRDLIRNESSPKVANAYALARELGRTVDEIIQIGMTGDLNARPAHAPIAVAGCVGAGARVDLLDAYEKGDGMYHVARPPQLKPHGIVAVEVKGESMMPLYRPGSVLFYTRAAAEGVPVEALNTPCVCEDADGRAWLKVVKVGSQEGTFSLLSLNPDADNMHGVRLKWAAPVLLTLSPDYVERVYV	not soluble
MSLQQAVGMYVEAPTPDEAARLINSGRKLGIVIAVGVCEVFYTGRAAASLGPTRRLVILKRDGTLLVHEAEKAQPKIWNPPGSSTAAYVEGGKLVVKSIRSRPFETVRVIFDKVDFIAAFDVGATELTLVGSERDVVGALVKNPSIIEEGLEVVGVEVPTDVGHLDILARDKNGRYVIIEVKRDLATHEAVFQLARYVELYRRKGYDVRGILVAGDITASAYDYLKRYGLNFVKINPRELMVLTNKNPLNAKEGHHHHHH	soluble
MTYRIKKWQKLSTITLLMAGVITLNGGEFRSVDKHQIAVADTNVQTPDYEKLRNTWLDVNYGYDKYDENNPDMKKKFDATEKEATNLLKEMKTESGRKYLWSGAETLETNSSHMTRTYRNIEKIAEAMRNPKTTLNTDENKKKVKDALEWLHKNAYGKEPDKKVKELSENFTKTTGKNTNLNWWDYEIGTPKSLTNTLILLNDQFSNEEKKKFTAPIKTFAPDSDKILSSVGKAELAKGGNLVDISKVKLLECIIEEDKDMMKKSIDSFNKVFTYVQDSATGKERNGFYKDGSYIDHQDVPYTGAYGVVLLEGISQMMPMIKETPFNDKTQNDTTLKSWIDDGFMPLIYKGEMMDLSRGRAISRENETSHSASATVMKSLLRLSDAMDDSTKAKYKKIVKSSVESDSSYKQNDYLNSYSDIDKMKSLMTDNSISKNGLTQQLKIYNDMDRVTYHNKDLDFAFGLSMTSKNVARYESINGENLKGWHTGAGMSYLYNSDVKHYHDNFWVTADMKRLSGTTTLDNEILKDTDDKKSSKTFVGGTKVDDQHASIGMDFENQDKTLTAKKSYFILNDKIVFLGTGIKSTDSSKNPVTTIENRKANGYTLYTDDKQTTNSDNQENNSVFLESTDTKKNIGYHFLNKPKITVKKESHTGKWKEINKSQKDTQKTDEYYEVTQKHSNSDNKYGYVLYPGLSKDVFKTKKDEVTVVKQEDDFHVVKDNESVWAGVNYSNSTQTFDINNTKVEVKAKGMFILKKKDDNTYECSFYNPESTNSASDIESKISMTGYSITNKNTSTSNESGVHFELTK	not soluble
MAHHHHHHMGSLVMGRCRRGAEETFEFREEYALLDAPIANAEHIPLRLRPQERKIQRLMRGVILASSYTDKVDSASALKLKNRELLVVKELTNALTGLIVGLDMRKAASFMRDHEFTPYQHEIRAAIEMCRRYKMMNPDLLRTDYVKFLYMIQDAVQSDMAREALGFNVVKELVTVGRYCETHNMQDILQDTRLPHCITPVPVMKDRNMLNRCLRGKDAVVGKLVKQYASEHRMHEDNVEVVVRSLNDANCFSNDNVETSERLLELLKQYFTPISCTELTSLAIDEGADGSRLTHNHKMQYIFVLQSLSLWKNMCRKMYMLWSLAEEDMLNPNEKYELRMTGQGLQRVQKAPQLFKAIQQVLQETKEELGEWVGSERIHLGDDQVPNAFHFIDKYGQVSRIIIPILRTLGHIDQLERHADHAAYLREVWGGGEQAKRAILRDFFRHGFDGSGGDNMDDAGSCIDGRLTSAWNWCNNIRFKEFYPLFLFSGFSSFDGDMGL	soluble
MKLIVKVFPEITIKSPPVRKKFIRQLGKNIRTVLRELDADIVVGGVWDNLEVETRLTDPKVLQGIRDRLSCMPGIANFLQVAEYPLGDMDDVVAKCKLHYADLLPGTMFSVRCKRAGRHDFSSMDVEKYVGSQLRMQCGAAGIELKKPDLVVRMEIRDQRLFVVHDQHKGMGGYPLGALEQTLVLMSGGFDSTVAAYQIMRRGLMAHFCFFNLGGRAHELGVMEVAHFIWKKYGSSQRVLFVSVPFEEVLGEILQKVDNSHMGVVLKRMMLRAASAVADRLEIDVLVTGEAISQVASQTLPNLSLIDAATDKLVLRPLVATHKQDIVDLATEIGTADFARHMPEYCGVISVNPKTNAKRNRVEYEEQQFDMAILEQALERAKLVSIDRVIDDLSRNIDIEEVSQALAGQVIIDIRHPDAQEDQPLQVPGVEIQTLPFYALNSRFKALDDTRQYLLYCDKGVMSRLHAHHLLSEGHANVRVYRPS	not soluble
MGSDKIHHHHHHMMRLLCFIDYLGSGGAQRQLTFLARHLKKSGVDVEVLTYHESDFFIPVLAEAGINVETVRGGGRFTKVFSLRKSIRARKFDVLLAFLNAPALYAEIAALPRRRWGLVVSERLAVPGSSMGFARFRRYLHGLADYVTTNSHTNRLLIEKAVPGLTGKVVTIYNALDLEYFSPLQGPVPAGDGRLRFVVLASHQLKKNLLGLVEAAHQVVQAAPELDFTIEWFGRFDAGKNGPGDTGPFEQAKRRIETFRIQDRFIFSEPTSDVAAVYRRADALILPSFYEGLPNVVCEAMACGRPVLMSNVCDAENLVREGDNGFLFDPRDPADMARAILRFAALSGDDRKLMGEKSRKRAVILFNPERFAAHYRRVLESAMRREQTIIPHWCESIPQSAIRMIENEK	not soluble
MGSDKIHHHHHHMNVSIRLPRFEFDDKILEQGAEISRRLNQLRMEKFPPNATKTLRTFSMAEVAHYLGVSQNNLKRLHLEGKGPLPDQSPSGRRSYTATQMLELRQFLDQHGRTEVKKYVPHRKLGDKLQVVAVVNFKGGSGKTTTAAHLAQHLALTGHRVLAIDLDPQASLSALHGFQPELDRNLSLYEAIRYDDERRSIADVIIPTNFPGLDIIPANLELQEYEYDTPLAMQDKTSSAGRQFFTRMAKALSEVDDRYDVVVVDCPPQLGYLTLTAMSAATSVLITVHPQMLDLMSMSQFLLMLGGILKTIKAAGAAIELDWFRYLITRYEPTDIPQAQMVGFMQSMLAGQILENPMLKSTAISDAGLTKQTLYEVEKSAFTRSTYDRALESLDAVNAEIVTLIHRAWGRS	not soluble
MLKYQQIATEIETYIEEHQLQQGDKLPVLETLMAQFEVSKSTITKSLELLEQKGAIFQVRGSGIFVRKHKRKGYISLLSNQGFKKDLEDFNVTSKVIELDVRKPTPEAAENLNIGMDEDIYYVKRVRYINGQTLCYEESYYTKSIVTYLNNEIVSHSIFHYIREGLGLKIGFSDLFLHVGQLNEEEAEYLGLEAGLPKLYIESIFHLTNGQPFDYSKISYNYEQSQFVVQANSFLL	soluble
MAIDVLDVISLSLFKQQIEFEEDDRDELITLYAQAAFDYCMRWCDEPAWKVAADIPAAVKGAVLLVFADMFEHRTAQSEVQLYENAAAERMMFIHRNWRGKAESEEGS	soluble
MMKKILVACGTGMSTSTMIAQKLQDFLAEQGIAATTAQCCLNEIPLNCNGMDLIVTSMRTHSDYGIPTLNGAALLTGINDDALKQEIKALLTQ	not soluble
MGSDKIHHHHHHMTKRIMFTGGSGKAGRHVVQYLVEQGCQVLNIDTKPLDNPKVRTLITDITDSGQVFNALSSYMGLHEFDPSLRPQPVDAVVHFAAIPRIMITPDNEVFRINAMGTYNVIEAAVKLGIRKVIVASSETTYGLVFANEPRDPKYFPLDEEYDVDPMDSYALSKVVNEKTARAFAQRNGTDIYALRIGNVIEPHEYSLFPKWFADPGFRKRIAWSYIDARDLGQITLRAIEKDGLGYQVFNAANDDTSSDLPTAELLKRFYPNVPVKAALGEYETLLSNRKARDMLGFRPEHSWRKYVK	not soluble
EVKLLESGGGLAQPGGSLKLSCAASGFDFRRYWMTWVRQAPGKGLEWIGEINPDSRTINYMPSLKDKFIISRDNAKNSLYLQLSRLRSEDSALYYCVRLDFDVYNHYYVLDYWGQGTSVTVSSASTKGPSVFPLAPSSKSTSGGTAALGCLVKDYFPEPVTVSWNSGALTSGVHTFPAVLQSSGLYSLSSVVTVPSSSLGTQTYICNVNHKPSNTKVDKKVEPKSCD	soluble
MSRSQVTGKEFVLRCVFNDVSNMNDNDMRFGTVEEYFNVPWIFQIQRNNGNLGIYLRCTNLKDQEMWSIFSELELKLVSVYSDTRDQKCKIDMCFGHDSGKFYSSYGWSEFISWNELETSFMEAGSITVEARVLINKSIGFYTPKLMDFDEKMMEYSDIVVLVNGQRFYLLKKFLAFHSTFFESLFLGGFYEAKLAEVPLYDIDVDDFQKFLEVLYGFPVINVIVPINKLTLQQSEMLNACAQYAQTGSQKLTREANYVITEVRLF	not soluble
SNASVRPSLWEFSSRVGMHVGASTPVPVPQAMEHVYAWYPRLNPMVQLSASRRLLAGSPWAVNVGIAVEKKGMEATTRVKDMKVAIVSDSPYAGNPDEEYPGLFTGDNNTEIRLGYLTIPVQAEYNMLKDRLKLRGGLYTSLLLESSFRVIIDGTMVYDDPKLGTAQMDLRELNFSDKIKGADFGVIIGADYYFARQ	not soluble
MDPVFDFEDALDQTEMAQLAVDELKKIPEVNTLFAERWLPAPFNLDDLAKLPEGTLGHVYAIEMKARGFDPYFYKKVPVVDDISYLKMLWRSTHDIYHVVAGFDTDGIGEIGLQAFVLAQTPIPISVMLVSFGMVMTSLYQPAKFQDLMAEIARGYSLGSHTPRKLIAQKWDQFWDVPVIEIRECLGMNTVKQRERALEHHHHHH	soluble
